Target: T1, Smc3 K1004C E1155Q (S. cerevisiae, UniProt P47037 1-1230, K1004C | E1155Q)
T1 construct: Smc3, S. cerevisiae; also called EQ mutant version of Smc3^K1004C; source: S. cerevisiae W303, ectopically expressed, late G1 arrested cells, whole-cell extract
T1 sequence (looked up): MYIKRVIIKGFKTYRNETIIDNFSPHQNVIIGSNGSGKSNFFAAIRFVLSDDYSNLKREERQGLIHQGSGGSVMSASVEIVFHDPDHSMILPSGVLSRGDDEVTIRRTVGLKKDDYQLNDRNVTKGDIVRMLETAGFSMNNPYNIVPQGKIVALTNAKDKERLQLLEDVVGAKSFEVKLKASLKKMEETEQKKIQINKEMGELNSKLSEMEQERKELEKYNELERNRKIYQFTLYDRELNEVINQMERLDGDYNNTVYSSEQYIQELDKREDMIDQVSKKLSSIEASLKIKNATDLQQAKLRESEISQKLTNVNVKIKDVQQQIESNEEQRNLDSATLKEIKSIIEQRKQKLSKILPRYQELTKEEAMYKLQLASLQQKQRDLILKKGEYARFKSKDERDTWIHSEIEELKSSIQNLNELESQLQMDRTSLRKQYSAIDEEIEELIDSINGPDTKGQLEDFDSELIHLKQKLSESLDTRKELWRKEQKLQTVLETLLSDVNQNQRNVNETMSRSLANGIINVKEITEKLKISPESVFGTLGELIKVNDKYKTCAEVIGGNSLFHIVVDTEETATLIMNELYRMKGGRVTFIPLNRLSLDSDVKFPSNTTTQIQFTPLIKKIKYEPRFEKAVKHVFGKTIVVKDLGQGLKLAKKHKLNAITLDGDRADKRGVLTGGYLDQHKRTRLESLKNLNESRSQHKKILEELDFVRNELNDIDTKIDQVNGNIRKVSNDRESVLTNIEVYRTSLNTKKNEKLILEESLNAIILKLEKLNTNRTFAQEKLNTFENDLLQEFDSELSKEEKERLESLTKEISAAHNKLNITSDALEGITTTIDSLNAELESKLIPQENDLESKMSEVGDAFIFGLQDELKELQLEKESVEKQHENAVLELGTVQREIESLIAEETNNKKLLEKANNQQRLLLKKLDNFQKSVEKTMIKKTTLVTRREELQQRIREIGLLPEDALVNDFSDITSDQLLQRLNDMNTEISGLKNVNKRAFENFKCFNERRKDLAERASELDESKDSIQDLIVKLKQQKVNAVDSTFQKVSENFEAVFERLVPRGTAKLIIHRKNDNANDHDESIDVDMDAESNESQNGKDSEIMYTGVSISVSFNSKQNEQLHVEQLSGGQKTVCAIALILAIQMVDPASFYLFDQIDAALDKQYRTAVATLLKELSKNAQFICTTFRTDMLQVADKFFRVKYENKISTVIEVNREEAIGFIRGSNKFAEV
Assay: cross-linking; in vivo BMOE cross-link of cysteine pairs in yeast cells arrested in late G1 by non-degradable Sic1(9m); Scc1-PK immunoprecipitated, western blot, band intensities quantified
Details: partners not purified

B1: Scc2 D369C (natural protein, S. cerevisiae, UniProt Q04002 1-1493, looked up)
chain: MSYPGKDKNIPGRIIEALEDLPLSYLVPKDGLAALVNAPMRVSLPFDKTIFTSADDGRDVNINVLGTANSTTSSIKNEAEKERLVFKRPSNFTSSANSVDYVPTNFLEGLSPLAQSVLSTHKGLNDSINIEKKSEIVSRPEAKHKLESVTSNAGNLSFNDNSSNKKTKTSTGVTMTQANLAEQYLNDLKNILDIVGFDQNSAEIGNIEYWLQLPNKKFVLTTNCLTKLQMTIKNITDNPQLSNSIEITWLLRLLDVMVCNIKFSKSSLKMGLDDSMLRYIALLSTIVLFNIFLLGKNDSNLHRESYIMEPVNFLSDLIESLKILTIEYGSLKIEFDTFQEALELLPKYIRNGPFLDDNVTAKLVYIFSCLLMNNDIEATTNIQFQSFWDNVKRISSDILVSLFGSFDQQRGFIIEELLSHIEKLPTKRIQKKLRKVGNQNIYITDFTFTLMSMLENINCYSFCNQMKDIAPENIDLLKNEYKKQEEFLFNIVEHINDTILERFFKNPSALRYVIDNFVQDLLLLISSPQWPVTEKILSSLLKRLLSVYSPSMQVSANIETICLQLIGNIGSTIFDIKCSTRDHEDNNLIKMINYPETLPHFFKSFEECIAYNETIKCRRSATRFLWNLRLGTILILEEYTKDAKEQIITVDNELKKILEQIKDGGLGPELENREADFSTIKLDYFSILHAFELLNLYDPYLKLILSLLAKDKIKLRSTAIKCLSMLASKDKVILSNPMVKETIHRRLNDSSASVKDAILDLVSINSSYFEFYQQINNNYNDDSIMVRKHVLRINEKMYDETNDIVTKVYVIARILMKIEDEEDNIIDMARLILLNRWILKVHEVLDQPEKLKEISSSVLLVMSRVAIMNEKCSQLFDLFLNFYLLNKEAHSKEAYDKITHVLTILTDFLVQKIVELNSDDTNEKNSIVDKQNFLNLLAKFADSTVSFLTKDHITALYPYMVSDEKSDFHYYILQVFRCTFEKLANFKQKFLYDLETTLLSRLPKMNVREIDEAMPLIWSVATHRHDTARVAKACSSCLSHLHPYINKANNEEAAIVVDGKLQRLIYLSTGFARFCFPKPSNDKIAFLQEGETLYEHITKCLLVLSKDKITHVIRRVAVKNLTKLCGNHPKLFNSRHVLHLLDKEFQSDQLDIKLVILESLYDLFLLEERKSVRNTGVNSTLSSNSILKKKLLKTNRVEFANDGVCSALATRFLDNILQLCLLRDLKNSLVAIRLLKLILKFGYTNPSHSIPTVIALFASTSQYIRHVAYELLEDLFEKYETLVFSSLSRGVTKAIHYSIHTDEKYYYKHDHFLSLLEKLCGTGKKNGPKFFKVLKRIMQSYLDDITDLTSTNSSVQKSIFVLCTNISNITFVSQYDLVSLLKTIDLTTDRLKEVIMDEIGDNVSSLSVSEEKLSGIILIQLSLQDLGTYLLHLYGLRDDVLLLDIVEESELKNKQLPAKKPDISKFSAQLENIEQYSSNGKLLTYFRKHVKDT
notes: Scc2, S. cerevisiae; source: S. cerevisiae W303, in vivo, whole-cell extract
  fold change of the crosslink against wild-type Smc3 (K1004C): ~10 fold
